Laboratory results as given in patent US8986682B2, “Method to increase the absorption of unsaturated fatty acids by human infants” (Swedish Orphan Biovitrum AB (publ), priority 2010, dated 2015).
Several values for one entry are separate records, joined by “and”; a condition that tells them apart may be missing. Identical values can stand only once. Entries after “also recorded” stand apart in the source; their conditions may differ.

Legend:
[1] = test system: preterm infants born before week 32 of gestational age; assay: Growth velocity (body weight) in phase II crossover studies BVT.BSSL-020/-021; type: in vivo, human; details: for Growth velocity, LS Mean / Growth velocity, LS Mean Difference (rhBSSL − Placebo) / Growth velocity, Maximum / Growth velocity, Mean (SD) / Growth velocity, Median / Growth velocity, Minimum: 7 days
Experimental: Patients were randomized to infant formula/pasteurized breast milk supplemented with rhBSSL at a final concentration of 0.15 g/L, or to infant formula/pasteurized breast milk “supplemented” with sterile water for injection (as placebo) for the first 7 days. After a washout period of 2 days, the patient was “crossed over” to the other treatment regimen during a second 7-day treatment period. Collection of feces samples for CFA assessment were performed during the last 3 days (72 hours) of each treatment period.
The patient's weight in grams was recorded each day using a scale with an accuracy of at least +/−5 grams and entered on the CRF. To the extent possible, body weight was measured at approximately the same time each day.
• Growth velocity (g/kg/day): Growth velocity was defined as, for the first period, (the weight at the last assessment in the first period minus the weight at Day 1) divided by [the weight at Day 1 and (the day of the last assessment in the first period minus 1)], and for the second period, (the weight at the last assessment in the second period minus the weight at Day 10) divided by [the weight at Day 10 and (the day of the last assessment in the second period minus 10)]. The Secondary Efficacy Variables were: • CFA measured in food and feces samples collected between the tracer markers during the final 3 days (72 hours) of each treatment period. • CFA was calculated as [Fat (g/period) in food—Fat (g/period) in stool]/[Fat (g/period) in food)]*100. • Fat in food was calculated as ([Food (mL)−Vomit (mL)]*[Fat Content in Food (g/100 mL)]/100. This formula was based on the following assumptions: (a) fat content in vomit is the same as the fat content in food; (b) density of vomit is the same as density of food. • Fat content of food (formula or pasteurized breast milk) was determined using the same method as for the stool analysis and was performed by the same lab. Food (mL) and Vomit (mL) were calculated as the total amount of food or vomit recorded on or after the first tracer ingestion and prior to the second tracer ingestion. Vomit was recorded in grams on the CRF. Therefore, Vomit (mL) was calculated as Vomit (g)/Density. • There was one difference in the calculation of fat (g/period) in stool and fat content in food (g/100 mL) between the two studies. That difference relates to different contents of fatty acids in milk and formula, as described below: […]
The primary efficacy outcome, growth velocity, was analyzed by an analysis of variance (ANOVA) with treatment, regimen (pasteurized breast milk or infant formula), period, sequence, and patient nested within regimen and sequence as factors. All main effects were tested against the residual mean square from the ANOVA model.

[2] = test system: preterm infants born before week 32 of gestational age; assay: Change in knee-to-heel length (knemometer), studies BVT.BSSL-020/-021; type: in vivo, human; details: FAS and PP, combined data and by study, one week of treatment
Experimental: The length of the patient's leg was measured from the knee to the heel using a knemometer provided to the sites. Knee-to-heel length was recorded in millimeters on the CRF. To the extent possible, length was measured at approximately the same time each day and by the same person. Three measurements were made and the mean value was entered on the CRF.
Combined Analysis: • The combined statistical analysis of CFA data used the overall CFA values as calculated for each infant/treatment-period from each of the two individual studies. • Change in length (mm): Change in length was defined as the change in length from knee to heel from Day 1 to Day 7 in the first period and Day 10 to Day 16 in the second period. The Exploratory Efficacy Variables were: • Absorption of DHA and AA: Coefficients of absorption of DHA (C22:6 n-3) and AA (C20:4 n-6) measured in feces samples collected during the final 3 days (72 hours) of each treatment period. • Coefficients of absorption of DHA and AA were calculated using the same approach as used for CFA calculations, but using only the amounts of the individual (C22:6 n-3) and (C20:4 n-6) in samples for DHA and AA, respectively. 7.5.2 Efficacy Analysis Methodology […]

[3] = BVT.BSSL-020 (infant formula), FAS, 0.15 g/L
[4] = BVT.BSSL-020 (infant formula), PP, 0.15 g/L
[5] = BVT.BSSL-021 (pasteurized breast milk), FAS, 0.15 g/L
[6] = BVT.BSSL-021 (pasteurized breast milk), PP, 0.15 g/L
[7] = combined studies 020+021, FAS, 0.15 g/L in feed
[8] = combined studies 020+021, PP, 0.15 g/L in feed

B1: rhBSSL: recombinant human bile-salt-stimulated lipase, SEQ ID. NO. 1, expressed from recombinant CHO cells; used in both clinical trials (protein, listed as Homo sapiens)
chain: AKLGAVYTEGGFVEGVNKKLGLLGDSVDIFKGIPFAAPTKALENPQPHPGWQGTLKAKNFKKRCLQATITQDSTYGDEDCLYLNIWVPQGRKQVSRDLPVMIWIYGGAFLMGSGHGANFLNNYLYDGEEIATRGNVIVVTFNYRVGPLGFLSTGDANLPGNYGLRDQHMAIAWVKRNIAAFGGDPNNITLFGESAGGASVSLQTLSPYNKGLIRRAISQSGVALSPWVIQKNPLFWAKKVAEKVGCPVGDAARMAQCLKVTDPRALTLAYKVPLAGLEYPMLHYVGFVPVIDGDFIPADPINLYANAADIDYIAGTNNMDGHIFASIDMPAINKGNKKVTEEDFYKLVSEFTITKGLRGAKTTFDVYTESWAQDPSQENKKKTVVDFETDVLFLVPTEIALAQHRANAKSAKTYAYLFSHPSRMPVYPKWVGADHADDIQYVFGKPFATPTGYRPQDRTVSKAMIAYWTNFAKTGDPNMGDSAVPTHWEPYTTENSGYLEITKKMGSSSMKRSLRTNFLRYWTLTYLALPTVTDQEATPVPPTGDSEATPVPPTGDSETAPVPPTGDSGAPPVPPTGDSGAPPVPPTGDSGAPPVPPTGDSGAPPVPPTGDSGAPPVPPTGDSGAPPVPPTGDSGAPPVPPTGDAGPPPVPPTGDSGAPPVPPTGDSGAPPVTPTGDSETAPVPPTGDSGAPPVPPTGDSEAAPVPPTDDSKEAQMPAVIRF
[1]; [3]
  Growth velocity, LS Mean: 18.05 g/kg/day
  Growth velocity, LS Mean Difference (rhBSSL − Placebo): 3.74 g/kg/day
  Growth velocity, Maximum: 25.5 g/kg/day
  Growth velocity, Mean (SD): 18.06 g/kg/day and 18.06 (3.964) g/kg/day
  Growth velocity, Median: 18.39 g/kg/day
  Growth velocity, Minimum: 9.2 g/kg/day
[1]; [4]
  Growth velocity, LS Mean: 17.75 g/kg/day
  Growth velocity, LS Mean Difference (rhBSSL − Placebo): 2.30 g/kg/day
  Growth velocity, Maximum: 24.0 g/kg/day
  Growth velocity, Mean (SD): 17.79 (4.013) g/kg/day
  Growth velocity, Median: 17.98 g/kg/day
  Growth velocity, Minimum: 9.2 g/kg/day
[1]; [5]
  Growth velocity, LS Mean: 15.58 g/kg/day
  Growth velocity, LS Mean Difference (rhBSSL − Placebo): 1.95 g/kg/day
  Growth velocity, Maximum: 26.5 g/kg/day
  Growth velocity, Mean (SD): 15.54 g/kg/day and 15.54 (4.880) g/kg/day
  Growth velocity, Median: 15.95 g/kg/day
  Growth velocity, Minimum: 7.5 g/kg/day
[1]; [6]
  Growth velocity, LS Mean: 16.47 g/kg/day
  Growth velocity, LS Mean Difference (rhBSSL − Placebo): 1.71 g/kg/day
  Growth velocity, Maximum: 26.5 g/kg/day
  Growth velocity, Mean (SD): 16.16 (4.856) g/kg/day
  Growth velocity, Median: 16.80 g/kg/day
  Growth velocity, Minimum: 8.3 g/kg/day
[1]; [7]
  Growth velocity, LS Mean: 16.86 g/kg/day
  Growth velocity, LS Mean Difference (rhBSSL − Placebo): 2.93 g/kg/day
  Growth velocity, Maximum: 26.5 g/kg/day
  Growth velocity, Mean (SD): 16.92 (4.540) g/kg/day
  Growth velocity, Median: 16.84 g/kg/day
  Growth velocity, Minimum: 7.5 g/kg/day
[1]; [8]
  Growth velocity, LS Mean: 17.15 g/kg/day
  Growth velocity, LS Mean Difference (rhBSSL − Placebo): 2.08 g/kg/day
  Growth velocity, Maximum: 26.5 g/kg/day
  Growth velocity, Mean (SD): 17.08 (4.424) g/kg/day
  Growth velocity, Median: 16.84 g/kg/day
  Growth velocity, Minimum: 8.3 g/kg/day
[1]; combined studies, PP
  Relative increase of growth velocity compared to the LS mean for placebo: 13.8%
[1]; formula-fed infants (BVT.BSSL-020), PP
  Relative increase of growth velocity compared to the LS mean for placebo: 14.9%
[2]
  Change in knee-to-heel length, rhBSSL versus placebo: No noticeable differences; also recorded: No difference
